Values joined by “and” are separate entries in the source; they are usually repeats but may differ in a detail not shown here. Equal values may be shown once.

The target of assay [1] is Synaptobrevin-2 variant lacking the transmembrane helix, Syb(1-96) (UniProt P63045). Briefly: native MS; SNAP25 and Synaptobrevin-2 mixed 1:2 and 2:1. The conditions noted are these: scale: SNAP25 per Synaptobrevin-2.
Assay [2] concerns the target SNAP25(CtoS), cysteine-free variant of SNAP25 (UniProt P60881). The assay is described as follows: native MS; 10 µM of one protein alone, 200 mM ammonium acetate.
For assay [3], the target named is Synaptobrevin-2 variant lacking the transmembrane helix, Syb(1-96) (UniProt P63045). The assay is described as follows: native MS; SNAP25 and Synaptobrevin-2 mixed 1:1; 200 mM ammonium acetate. The settings on record: scale: SNAP25 per Synaptobrevin-2.
The target of assay [4] is pre-assembled binary SNAP25:Synaptobrevin-2 complex (2:1) (UniProt P60881). The description is as above.
The target in assay [5] is SNAP25(CtoS), cysteine-free variant of SNAP25 (UniProt P60881). Briefly: cross-linking; 10 µM of one protein alone, 0-1.5 mM BS3, 1 h at 25 °C; gel electrophoresis, Coomassie staining and western blot.
Assay [6] deals with T1, full-length Complexin-1, P63041.
T1 chain: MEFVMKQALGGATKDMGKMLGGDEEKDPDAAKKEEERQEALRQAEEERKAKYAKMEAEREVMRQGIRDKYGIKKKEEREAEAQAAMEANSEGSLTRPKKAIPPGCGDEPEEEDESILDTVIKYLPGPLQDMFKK
The assay is described as follows: native MS; 10 µM of one protein alone, 200 mM ammonium acetate. The conditions noted are these: remark: other sources report otherwise.

Sequence of UniProt P63045 (P63045 1-96, change not shown): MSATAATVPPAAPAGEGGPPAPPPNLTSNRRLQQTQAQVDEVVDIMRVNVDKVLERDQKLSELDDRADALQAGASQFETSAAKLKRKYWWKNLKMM

As to “SNAP25(CtoS), cysteine-free variant of SNAP25 (from UniProt P60881 1-206) (natural protein)”, the stoichiometry N (commonly a count of units in the complex or per binding partner) is 2 in assay [1]; 2 and 3 in assay [2]; 2 in assay [3].
As for “pre-assembled binary SNAP25:Synaptobrevin-2 complex (2:1) (from UniProt P60881 1-206; P63045 1-96)”, the stoichiometry N in assay [4] is 2.
In turn, “SNAP25(CtoS), cysteine-free variant of SNAP25 (from UniProt P60881 1-206)” displayed a stoichiometry N in assay [5] of under 5.

B1: full-length Complexin-1, P63041 1-134 (natural protein)
chain: T1 chain
For the molecule B1, in assay [6], the stoichiometry N is 2 and 3.

The values above are taken from PMC9941103.
